From patent publication US20170224620A1 (Pfizer, published 2017)
Bridges are numbered along the chain shown (N, C = ends). Primed or numbered codes have the meaning given here. DBCO′ = dibenzocyclooctyne

Experiments:
[1] = target: Fc tagged recombinant human EGFR (rhEGFR-Fc, R&D systems, Cat#344-ER-050) (human) (UniProt P00533); assay: screening ELISA, peptide 100 µM against 0.7 nM biotin-EGF on coated rhEGFR
[2] = target: T1, EGF bound EGFR (rhEGFR-Fc with recombinant human EGF pre-injected in SPR or 50 nM EGF present in ELISA) (human, UniProt P00533 25-645; P01133 971-1023); assay: P2 competition ELISA, 5% nanoparticle conjugate
T1 construct: Complex of m1 and m5 as target; also called EGFR in the presence of EGF; With EGF; not shown: Fc tag

[3] = target: T1, EGF bound EGFR (rhEGFR-Fc with …); assay: P2 competition ELISA, 5% ligand density NP
[4] = target: T1, EGF bound EGFR (rhEGFR-Fc with …); assay: P2 competition ELISA: rhEGFR on the plate, 1 nM P2-Biotin dimer as tracer, 50 nM EGF; concentration on a ligand molar basis
Excerpt: (§1) An additional assay was developed to provide an orthogonal assay to SPR during the evaluation of the P₂ peptide analogs and nanoparticle conjugates.

[5] = target: T1, EGF bound EGFR (rhEGFR-Fc with …); assay: P2 competition ELISA, 1% ligand density NP
[6] = target: T1, EGF bound EGFR (rhEGFR-Fc with …); assay: P2 competition ELISA: rhEGFR on the plate, 1 nM P2-Biotin dimer as tracer, 50 nM EGF
Excerpt: as §1

[7] = target: T2, Fc tagged recombinant human EGFR (rhEGFR-Fc, R&D systems, Cat#344-ER-050) (human, UniProt P00533 25-645); assay: SPR
T2 construct: Bought protein; also called apo-EGFR; not shown: Fc tag

[8] = target: T2, Fc tagged recombinant human EGFR …; assay: EGF competition ELISA, 10% nanoparticle conjugate
[9] = target: T2, Fc tagged recombinant human EGFR …; assay: EGF competition ELISA, 10% nanoparticle conjugate; remark: listed apart in the source
Experimental: An alanine scan was performed on the amino acids within the cyclic portion of the peptide structure to determine which amino acids were critical for binding. Each amino acid within the peptide was individually replaced with alanine. […] Subsequently, an alanine scan of the flanking amino acids on P₁₋₃ was performed.

Question: For H-DGYCLHDGVC-NH2 (cysteine pairing not given here) [EGFf-3], which % inhibition of EGF [1] is on record?
Answer: Its % inhibition of EGF is 62.5%.

B1: 5% P2 nanoparticle (other)
peptide: Ac-DPCTWEVWGRECLQGGK-NH2
modifications: disulfide 3-12; not fully specified (residue 17)
notes: also called P2 5% Ligand Density NP; parent P2 conjugated nanoparticle (5%)
Question: For B1, which IC50 [2] is on record?
Answer: Its IC50 is 6 µg/mL.

Question: And the IC50 [3]?
Answer: Its IC50 is 4.3 µg/mL.

Question: What about the “IC50 (read off the curve)” value [4] of the same binder?
Answer: The value was about 9 nM.

Question: Ac-DPCTWEVWGRECLQGGK-NH2 (other, disulfide 3-12; not fully specified (residue 17), also called P2 1% Ligand Density NP) [1% P2 nanoparticle] was tested. Which IC50 [5] did it give?
Answer: The IC50 was 81 µg/mL.

Question: What about the “IC50 (read off the curve)” value [4] of the same binder?
Answer: The value was about 30 nM.

B2: P2 (Ac-DPCTWEVWGRECLQGGK(PEG4-DBCO)-CONH2) (peptide)
peptide: Ac-DPCTWEVWGRECLQGGK(PEG4‑DBCO)-NH2
modifications: disulfide 3-12
notes: also called P2 DBCO conjugate; parent peptide (P2)
Question: Which “IC50 (read off the curve)” value [6] does the source give for B2 here?
Answer: Its value is about 200 nM.

Question: Does {DBCO′}-SECFPAAPDWLSCIL-NH2 (disulfide 3-13 (inferred), also called Alternate DBCO placement) [P1-3-14] bind [7]?
Answer: Result: no binding

B3: 5% P2-2/55 nanoparticle (other)
peptide: DAXTWEVWGREXLQGGK
modifications: not fully specified; N-terminal acetyl; penicillamine at 3 and 12, disulfide; Lys17(DBCO) clicked to azide PLA-PEG nanoparticle at 5%; C-terminal amide
notes: also called P2-2/55 [DA PenPen]; NP; Ala2-Pen
Question: Which results are given for B3?
Answer: IC50 [2]: 6.3 µg/mL; Rel. Diff. (against P2 NP) [2]: 1.05 ratio

B4: 10% P1 nanoparticle (other)
peptide: Ac-SECFPLAPDWLSCILGGK(DBCO′)-NH2
modifications: disulfide 3-13; also: DBCO clicked to azide PLA-PEG nanoparticle, 10 mol %
notes: Multivalent nanoparticle conjugate; also called P1 conjugated to nanoparticle at 10 mol %; P1 NP
Question: With B4 as the binder, how does the IC50 [8] read?
Answer: The IC50 was 211 µg/mL.

Question: For Ac-SECAPLAPDWLSCILGGK(DBCO′)-NH2 (other, disulfide 3-13; also: DBCO clicked to azide PLA-PEG nanoparticle, 10 mol %) [10% P1-1 nanoparticle], which “10% NP Relative IC50 (normalized to P1)” value [9] is on record?
Answer: The value was about 0.3 ratio.

B5: 10% P1-3 nanoparticle (other)
peptide: Ac-SECFPAAPDWLSCILGGK(DBCO′)-NH2
modifications: disulfide 3-13; also: DBCO clicked to azide PLA-PEG nanoparticle, 10 mol %
notes: also called P1-3 NP; P1-3 (Leu6-Ala) conjugate
Question: Which IC50 [8] does the source give for B5 here?
Answer: Its IC50 is 10.3 µg/mL.

Question: Ac-AECFPAAPDWLSCILGGK(DBCO′)-NH2 (other, disulfide 3-13; also: DBCO clicked to azide PLA-PEG nanoparticle, 10 mol %) [10% P1-3-1 nanoparticle] was tested. Which “10% NP Relative IC50 (normalized to P1)” value [9] did it give?
Answer: Its value is 1 ratio.

Question: Does Ac-CFPAAPDWLSCGGK(DBCO′)-NH2 (disulfide 1-11 (inferred)) [P1-3-6] bind [7]?
Answer: Result: no binding

Question: Does Ac-CFPAAPDWLSCGGK(DBCO′)-NH2 (disulfide 1-11 (inferred)) [P1-3-7] bind [7]?
Answer: Result: no binding
